Data: the supplement of paper PMC10065799, “High-throughput profiling of sequence recognition by tyrosine kinases and SH2 domains using bacterial peptide display” (eLife, 2023)

Legend:
AncSZ = assay: phosphorylation enrichment, bacterial display (enrichment ratio); higher = better substrate or ligand; peptides without Tyr show the background
EPHB1 = EPHB1 (UniProt P54762); assay: as above
EPHB2 = EPHB2 (UniProt P29323); assay: as above
FGFR1 = FGFR1 (UniProt P11362); assay: as above
FGFR3 = FGFR3 (UniProt P22607); assay: as above
Fer (mouse) = assay: as above
Fes = Fes (UniProt P07332); assay: as above
Fyn = Fyn (UniProt P06241); assay: as above
Hck = Hck (UniProt P08631); assay: as above
Jak2 = Jak2 (UniProt O60674); assay: as above
MERTK = MERTK (UniProt Q12866); assay: as above
c-Abl (mouse) = assay: as above
c-Src = assay: as above
Grb2 SH2 = Grb2 SH2 (UniProt P62993); assay: SH2 binding enrichment of the phosphorylated peptide, bacterial display (enrichment ratio); higher = better substrate or ligand; peptides without Tyr show the background
SHP2-C SH2 = assay: as above
c-Src SH2 = assay: as above
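For SH2 binding enrichment of the phosphorylated peptide, bacterial display in this document: peptide library displayed on the E. coli surface as eCPX fusions, selected cells deep-sequenced, score is each peptide's frequency after selection divided by its frequency in the input.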
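For phosphorylation enrichment, bacterial display in this document: 11-residue human phosphosite peptides and single-mutation variants displayed on the E. coli surface, counted by deep sequencing, each peptide's frequency after selection divided by its frequency in the unselected input library; frequency after pTyr selection over input frequency; kinase dosed for 20-30% of maximal phosphorylation in three min.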

Sequence of EPHB2 (P29323 whole entry, looked up): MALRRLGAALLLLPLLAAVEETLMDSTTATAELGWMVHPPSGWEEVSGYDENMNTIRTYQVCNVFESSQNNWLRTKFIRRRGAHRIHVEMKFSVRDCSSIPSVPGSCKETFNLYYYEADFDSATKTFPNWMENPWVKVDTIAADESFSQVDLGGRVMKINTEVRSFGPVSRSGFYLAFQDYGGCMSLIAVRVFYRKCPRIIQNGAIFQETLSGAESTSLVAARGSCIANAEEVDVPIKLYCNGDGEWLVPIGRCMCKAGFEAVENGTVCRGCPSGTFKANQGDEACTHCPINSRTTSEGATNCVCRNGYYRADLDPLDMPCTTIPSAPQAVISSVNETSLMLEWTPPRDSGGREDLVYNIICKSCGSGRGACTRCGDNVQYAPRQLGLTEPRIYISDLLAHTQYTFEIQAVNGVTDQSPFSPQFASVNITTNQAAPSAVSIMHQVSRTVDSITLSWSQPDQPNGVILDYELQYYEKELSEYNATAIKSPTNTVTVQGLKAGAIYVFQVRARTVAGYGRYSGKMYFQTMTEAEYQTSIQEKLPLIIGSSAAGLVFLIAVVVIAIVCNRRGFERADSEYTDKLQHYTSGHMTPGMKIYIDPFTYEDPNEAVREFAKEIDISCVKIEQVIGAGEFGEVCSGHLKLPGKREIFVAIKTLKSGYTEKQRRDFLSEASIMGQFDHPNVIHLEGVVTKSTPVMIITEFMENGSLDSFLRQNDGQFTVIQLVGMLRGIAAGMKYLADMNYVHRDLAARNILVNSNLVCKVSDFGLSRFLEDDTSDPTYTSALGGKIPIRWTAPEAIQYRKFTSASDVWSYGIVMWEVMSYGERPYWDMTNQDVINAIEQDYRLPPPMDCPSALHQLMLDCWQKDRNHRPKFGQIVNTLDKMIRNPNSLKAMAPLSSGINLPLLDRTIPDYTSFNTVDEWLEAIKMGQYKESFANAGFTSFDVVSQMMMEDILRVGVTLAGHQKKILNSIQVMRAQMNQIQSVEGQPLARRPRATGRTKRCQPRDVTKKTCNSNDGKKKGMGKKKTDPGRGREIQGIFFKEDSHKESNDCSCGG
Sequence of Fes (P07332 whole entry, looked up): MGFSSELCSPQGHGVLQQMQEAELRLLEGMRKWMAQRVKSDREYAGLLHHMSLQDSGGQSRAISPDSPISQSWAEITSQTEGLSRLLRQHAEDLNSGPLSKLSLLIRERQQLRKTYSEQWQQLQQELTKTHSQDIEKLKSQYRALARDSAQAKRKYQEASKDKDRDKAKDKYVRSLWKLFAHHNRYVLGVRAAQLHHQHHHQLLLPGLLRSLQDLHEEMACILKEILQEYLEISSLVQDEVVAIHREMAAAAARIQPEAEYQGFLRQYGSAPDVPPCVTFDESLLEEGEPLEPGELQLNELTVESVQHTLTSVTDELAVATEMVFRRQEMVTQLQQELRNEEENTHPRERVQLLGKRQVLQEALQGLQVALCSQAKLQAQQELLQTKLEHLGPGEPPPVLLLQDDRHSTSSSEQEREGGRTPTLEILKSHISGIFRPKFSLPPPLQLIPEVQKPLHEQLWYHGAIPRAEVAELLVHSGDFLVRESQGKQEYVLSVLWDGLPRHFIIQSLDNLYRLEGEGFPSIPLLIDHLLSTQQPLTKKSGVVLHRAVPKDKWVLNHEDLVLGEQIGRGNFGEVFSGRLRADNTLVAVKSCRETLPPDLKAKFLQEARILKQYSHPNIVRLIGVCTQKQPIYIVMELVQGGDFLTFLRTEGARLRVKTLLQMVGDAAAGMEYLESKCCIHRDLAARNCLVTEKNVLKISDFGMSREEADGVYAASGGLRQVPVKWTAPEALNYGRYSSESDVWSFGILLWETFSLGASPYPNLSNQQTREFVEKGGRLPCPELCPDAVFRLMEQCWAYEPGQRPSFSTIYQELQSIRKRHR
Sequence of Grb2 SH2 (P62993 whole entry, looked up): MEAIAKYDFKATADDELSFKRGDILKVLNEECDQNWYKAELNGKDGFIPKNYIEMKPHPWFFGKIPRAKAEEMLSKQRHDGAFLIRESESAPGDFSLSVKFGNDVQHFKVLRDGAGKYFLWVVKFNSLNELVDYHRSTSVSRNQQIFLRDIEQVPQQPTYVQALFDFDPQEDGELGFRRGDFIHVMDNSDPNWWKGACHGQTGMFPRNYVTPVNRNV
Sequence of EPHB1 (P54762 whole entry, looked up): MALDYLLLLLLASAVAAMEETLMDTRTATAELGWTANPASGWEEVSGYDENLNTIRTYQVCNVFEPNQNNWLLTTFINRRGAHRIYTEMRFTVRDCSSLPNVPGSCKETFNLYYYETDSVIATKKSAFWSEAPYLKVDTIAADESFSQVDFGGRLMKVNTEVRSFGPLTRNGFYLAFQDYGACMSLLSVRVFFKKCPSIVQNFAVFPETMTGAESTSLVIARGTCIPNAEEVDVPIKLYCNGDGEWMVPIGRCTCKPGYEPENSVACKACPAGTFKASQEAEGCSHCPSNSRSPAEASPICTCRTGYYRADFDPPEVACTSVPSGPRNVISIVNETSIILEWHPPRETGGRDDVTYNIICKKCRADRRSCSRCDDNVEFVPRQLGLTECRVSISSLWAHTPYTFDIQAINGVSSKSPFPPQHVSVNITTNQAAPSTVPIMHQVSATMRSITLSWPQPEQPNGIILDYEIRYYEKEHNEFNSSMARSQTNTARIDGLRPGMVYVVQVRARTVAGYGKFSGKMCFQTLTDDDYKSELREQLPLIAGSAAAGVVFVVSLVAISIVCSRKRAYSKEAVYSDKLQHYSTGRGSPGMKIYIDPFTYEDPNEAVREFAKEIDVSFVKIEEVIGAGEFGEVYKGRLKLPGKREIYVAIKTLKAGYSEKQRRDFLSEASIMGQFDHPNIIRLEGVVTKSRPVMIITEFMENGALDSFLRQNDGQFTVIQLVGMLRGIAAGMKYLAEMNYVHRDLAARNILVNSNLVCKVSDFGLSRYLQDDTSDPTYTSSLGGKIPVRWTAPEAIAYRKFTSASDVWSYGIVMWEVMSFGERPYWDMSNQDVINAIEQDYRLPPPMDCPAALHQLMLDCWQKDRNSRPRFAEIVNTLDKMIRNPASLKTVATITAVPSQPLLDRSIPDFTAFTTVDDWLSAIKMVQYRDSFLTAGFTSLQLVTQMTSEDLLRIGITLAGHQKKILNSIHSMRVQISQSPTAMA
Sequence of Hck (P08631 whole entry, looked up): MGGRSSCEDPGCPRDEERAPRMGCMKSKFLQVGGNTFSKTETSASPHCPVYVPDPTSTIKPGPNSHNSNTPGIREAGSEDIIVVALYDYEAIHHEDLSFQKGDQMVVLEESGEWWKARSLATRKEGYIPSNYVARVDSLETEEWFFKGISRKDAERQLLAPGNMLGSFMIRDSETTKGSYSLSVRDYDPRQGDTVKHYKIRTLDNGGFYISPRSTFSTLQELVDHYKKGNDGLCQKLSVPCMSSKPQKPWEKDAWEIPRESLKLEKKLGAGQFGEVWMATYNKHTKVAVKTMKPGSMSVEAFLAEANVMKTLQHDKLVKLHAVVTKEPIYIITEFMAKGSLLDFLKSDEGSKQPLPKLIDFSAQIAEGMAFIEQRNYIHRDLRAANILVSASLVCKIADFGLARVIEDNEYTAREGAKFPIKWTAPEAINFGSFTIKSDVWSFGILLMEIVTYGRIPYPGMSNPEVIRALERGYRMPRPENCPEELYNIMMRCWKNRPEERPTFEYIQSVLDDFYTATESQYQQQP
Sequence of Fyn (P06241 whole entry, looked up): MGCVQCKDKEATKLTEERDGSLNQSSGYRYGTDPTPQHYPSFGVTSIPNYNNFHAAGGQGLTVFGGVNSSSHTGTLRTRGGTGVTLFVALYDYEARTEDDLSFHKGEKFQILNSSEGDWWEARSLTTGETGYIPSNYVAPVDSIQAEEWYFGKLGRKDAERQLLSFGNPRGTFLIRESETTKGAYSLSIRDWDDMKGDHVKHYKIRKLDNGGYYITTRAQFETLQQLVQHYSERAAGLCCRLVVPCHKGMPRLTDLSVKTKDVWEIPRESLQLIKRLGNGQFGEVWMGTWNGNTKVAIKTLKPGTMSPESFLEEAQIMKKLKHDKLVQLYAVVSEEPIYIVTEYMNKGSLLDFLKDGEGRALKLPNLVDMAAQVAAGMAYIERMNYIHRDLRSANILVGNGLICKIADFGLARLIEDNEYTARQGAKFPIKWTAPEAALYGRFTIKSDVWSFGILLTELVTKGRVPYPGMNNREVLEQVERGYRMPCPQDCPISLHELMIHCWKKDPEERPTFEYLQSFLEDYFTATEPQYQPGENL
Sequence of FGFR3 (P22607 whole entry, looked up): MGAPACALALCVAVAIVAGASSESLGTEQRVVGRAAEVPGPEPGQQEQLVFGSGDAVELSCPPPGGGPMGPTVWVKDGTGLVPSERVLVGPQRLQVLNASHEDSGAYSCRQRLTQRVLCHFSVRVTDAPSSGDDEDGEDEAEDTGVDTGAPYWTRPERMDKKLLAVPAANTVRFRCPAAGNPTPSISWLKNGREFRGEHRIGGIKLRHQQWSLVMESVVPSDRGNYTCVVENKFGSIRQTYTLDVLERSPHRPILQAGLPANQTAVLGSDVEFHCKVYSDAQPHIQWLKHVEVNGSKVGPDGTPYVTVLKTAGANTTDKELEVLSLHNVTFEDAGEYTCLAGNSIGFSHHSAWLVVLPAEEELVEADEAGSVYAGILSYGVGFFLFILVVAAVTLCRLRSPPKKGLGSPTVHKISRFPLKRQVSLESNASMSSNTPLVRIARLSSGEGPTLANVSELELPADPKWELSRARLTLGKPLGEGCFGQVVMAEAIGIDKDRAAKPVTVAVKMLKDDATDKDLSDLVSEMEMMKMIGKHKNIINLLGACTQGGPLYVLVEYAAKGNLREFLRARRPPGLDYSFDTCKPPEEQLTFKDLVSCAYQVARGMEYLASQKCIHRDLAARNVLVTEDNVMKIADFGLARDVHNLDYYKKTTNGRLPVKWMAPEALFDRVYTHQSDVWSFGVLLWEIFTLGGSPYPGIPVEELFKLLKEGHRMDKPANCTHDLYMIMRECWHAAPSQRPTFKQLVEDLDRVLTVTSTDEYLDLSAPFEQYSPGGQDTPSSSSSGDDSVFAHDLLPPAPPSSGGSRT

Sequence | phosphorylation enrichment (AncSZ) | phosphorylation enrichment (EPHB1) | phosphorylation enrichment (EPHB2) | phosphorylation enrichment (FGFR1) | phosphorylation enrichment (FGFR3) | phosphorylation enrichment (Fer (mouse)) | phosphorylation enrichment (Fes) | phosphorylation enrichment (Fyn) | phosphorylation enrichment (Hck) | phosphorylation enrichment (Jak2) | phosphorylation enrichment (MERTK) | phosphorylation enrichment (c-Abl (mouse)) | phosphorylation enrichment (c-Src) | SH2 binding enrichment (Grb2 SH2) | SH2 binding enrichment (SHP2-C SH2) | SH2 binding enrichment (c-Src SH2)
ANQDDHISFRH [IMP4_Y226_Y226H] | 0.852 | 0.518 | 0.497 | 0.456 | 0.535 | 0.416 | 0.903 | 0.419 | 0.501 | 0.833 | 0.453 | 0.912 | 0.611 | 1.02 | 0.512 | 0.502
ANSSFYSTRSA [NUMA1_Y1836] | 0.56 | 0.405 | 0.365 | 0.425 | 0.41 | 0.356 | 0.568 | 0.513 | 1.07 | 0.575 | 0.523 | 0.644 | 0.468 | 0.713 | 0.659 | 0.412
APTSGYQEFIH [IL4R_Y575_V579I] | 0.717 | 0.424 | 0.582 | 0.572 | 0.679 | 0.416 | 0.82 | 0.504 | 0.461 | 0.684 | 0.429 | 0.527 | 0.442 | 0.878 | 0.5 | 3.98
ARGMEYLASKN [FGFR1_Y613_K618N] | 0.452 | 0.285 | 0.32 | 0.407 | 0.447 | 0.271 | 0.511 | 0.327 | 0.337 | 0.463 | 0.355 | 0.385 | 0.394 | 1.03 | 0.557 | 0.524
ASENVYVNTAH [CTSC_Y150_I153T] | 0.936 | 0.7 | 0.588 | 0.633 | 0.485 | 0.527 | 0.86 | 0.748 | 0.796 | 0.772 | 0.429 | 0.599 | 0.814 | 7.62 | 1.12 | 1.27
ASFGPYTRVQS [FOXL2_Y258_YF] | 0.61 | 0.524 | 0.381 | 0.527 | 0.494 | 0.409 | 0.606 | 0.515 | 0.483 | 0.669 | 0.498 | 0.449 | 0.481 | 0.655 | 4.01 | 1.43
ATHRGYDSDNP [MMUT_Y146] | 0.586 | 0.342 | 0.444 | 0.377 | 0.472 | 0.418 | 0.731 | 0.404 | 0.471 | 0.523 | 0.363 | 0.548 | 0.365 | 0.998 | 0.533 | 0.536
ATPSQYMTFLH [DYNC2H1_Y2872_R2871Q] | 0.903 | 0.593 | 0.473 | 0.562 | 0.651 | 0.541 | 0.791 | 3.39 | 2.29 | 0.99 | 1.06 | 0.885 | 2.62 | 0.799 | 2.86 | 0.75
ATVQNYLPKCI [A2M_Y817_L815Q] | 0.626 | 0.39 | 0.482 | 0.462 | 0.489 | 0.406 | 0.862 | 0.369 | 0.346 | 0.688 | 0.372 | 0.687 | 0.362 | 0.827 | 0.581 | 0.497
AVARMYGVLPW [PLP1_Y207_D203V] | 0.689 | 0.411 | 0.644 | 0.524 | 0.536 | 0.505 | 0.866 | 2.46 | 3.59 | 0.666 | 0.491 | 0.656 | 2.19 | 0.952 | 0.433 | 0.524
AVDVTYDGHPV [FLNB_Y1020] | 1.11 | 1.09 | 3.74 | 0.497 | 0.63 | 0.925 | 0.982 | 2.3 | 2.78 | 0.724 | 0.429 | 0.705 | 2.55 | 0.803 | 0.476 | 0.444
AVEDQYFRVDC [FHL1_Y207_C209R_YF] | 2.04 | 0.655 | 0.568 | 4.27 | 3.33 | 0.626 | 1.38 | 0.552 | 0.542 | 1.6 | 0.499 | 0.838 | 0.519 | 0.934 | 0.892 | 0.591
AVEDQYYCVDC [FHL1_Y207] | 2.07 | 0.53 | 0.598 | 5.7 | 4.65 | 0.684 | 1.3 | 0.853 | 0.796 | 1.39 | 0.72 | 0.786 | 1.97 | 0.877 | 0.748 | 1.08
AVLSLYASGRT [ACTA1_Y145] | 1.02 | 0.622 | 0.571 | 0.523 | 0.699 | 0.503 | 1.2 | 0.489 | 0.702 | 1.04 | 0.413 | 0.813 | 0.461 | 0.971 | 0.731 | 0.555
AVLVQYFMEHH [PTPN11_Y80_E76V_YF] | 0.934 | 0.638 | 0.613 | 0.466 | 0.813 | 0.484 | 1.15 | 0.503 | 0.448 | 1.07 | 0.429 | 0.638 | 0.421 | 1.37 | 1.51 | 1.19
AYGGGYGGVLT [KRT19_Y65] | 0.583 | 0.461 | 0.458 | 0.456 | 0.645 | 0.477 | 0.574 | 0.442 | 0.605 | 0.485 | 0.372 | 0.485 | 0.573 | 0.623 | 0.614 | 0.401
